B1: Cell shape-determining protein MreB (Escherichia coli (strain K12)), P0A9X4 (parent)
chain: MLKKFRGMFSNDLSIDLGTANTLIYVKGQGIVLNEPSVVAIRQDRAGSPKSVAAVGHDAKQMLGRTPGNIAAIRPMKDGVIADFFVTEKMLQHFIKQVHSNSFMRPSPRVLVCVPVGATQVERRAIRESAQGAGAREVFLIEEPMAAAIGAGLPVSEATGSMVVDIGGGTTEVAVISLNGVVYSSSVRIGGDRFDEAIINYVRRNYGSLIGEATAERIKHEIGSAYPGDEVREIEVRGRNLAEGVPRGFTLNSNEILEALQEPLTGIVSAVMVALEQCPPELASDISERGMVLTGGGALLRNLDRLLMEETGIPVVVAEDPLTCVARGGGKALEMIDMHGGDLFSEE
B2: Cell division protein FtsZ (Escherichia coli (strain K12)), P0A9A6 (parent)
chain: MFEPMELTNDAVIKVIGVGGGGGNAVEHMVRERIEGVEFFAVNTDAQALRKTAVGQTIQIGSGITKGLGAGANPEVGRNAADEDRDALRAALEGADMVFIAAGMGGGTGTGAAPVVAEVAKDLGILTVAVVTKPFNFEGKKRMAFAEQGITELSKHVDSLITIPNDKLLKVLGRGISLLDAFGAANDVLKGAVQGIAELITRPGLMNVDFADVRTVMSEMGYAMMGSGVASGEDRAEEAAEMAISSPLLEDIDLSGARGVLVNITAGFDLRLDEFETVGNTIRAFASDNATVVIGTSLDPDMNDELRVTVVATGIGMDKRPEITLVTNKQVQQPVMDRYQQHGMAPLTQEQKPVAKVVNDNAPQTAKEPDYLDIPAFLRKQAD

Variants of: B1
Settings: with ftsz_ecoli ftsZ

Variant	effect of a mutation on the interaction
D285A	disrupting interaction

Variants of: B2
Settings: with mreb_ecoli mreB

Variant	effect of a mutation on the interaction
P203Q	disrupting interaction

Reference: IntAct's records for PubMed 23756461
